Measured values as given in patent publication US20060121510.

Tested on: calmodulin (3′,5′-cyclic nucleotide phosphodiesterase activator, Sigma)

3′,5′-cyclic nucleotide phosphodiesterase (activator deficient from bovine brain, Sigma)
hydrolysis of 3′,5′-cyclic AMP to 5′-AMP during a 40 min preincubation (enzyme activity): more than 90% is destroyed in a similar reaction containing calmodulin
